Measured values: the supplement of paper PMC9732359
± gives the uncertainty stated by the source.

Experiment: protein stability index of a GFP-peptide fusion (yeast GPS) (PSI 1-4); higher = more stable; sorted into four equal gates, so the index is relative within each strain
Conditions: doa10∆
How it was run: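 Each library plasmid carries Cherry plus GFP with a tiled 17-residue yeast protein peptide fused downstream, and the pooled library was carried in yeast. Mid-log cultures in leucine-free medium were sorted into four equal gates by GFP/Cherry ratio. Reads from Illumina sequencing of PCR-amplified plasmids from each gate were assigned to strains by barcodes. Per peptide, the protein stability index was computed as the summed products of gate read frequency and gate number.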

In order of rising protein stability index:
1. QLIKQSIKNNVAMCFVI [SNU114]  1.37 ± 0.16
2. QWMVSLFNNHLNGILAD [SNF2]  1.39 ± 0.12
3. QYILQIVSFIVNCFHED [YJL039C/NUP192]  1.42 ± 0.061
4. QRMHAIHEIDERLAKVN [NNF1]  1.44 ± 0.093
5. QFVETIVSKSIEMYVQE [RPN2]  1.51 ± 0.13
6. QLFHSMSIVFGDKFSED [UBP6]  1.62 ± 0.056
7. RASLVPGTVLILLAGRF [RPL6A]  1.67 ± 0.054
8. QWLIMLGICTHLGCVPI [RIP1]  1.69 ± 0.067
9. QPQHPHYVSTSKISQMA [YLR018C/POM34]  1.71 ± 0.037
10. QYQLLYNLKNDILTNLE [SWI1]  1.81 ± 0.033
11. QRIIKELSIRFPQYKLT [ARP7]  1.9 ± 0.058
12. QTLSSHLEALQPLFSTV [PGD1]  1.96 ± 0.031
13. QEKQEQQEQDKKKKSNH [PRE6]  1.97 ± 0.048
14. QWRYLYDTQLKVSPEEL [ARP7]  1.98 ± 0.042
15. QVENMKWDFAKDIKGYG [PRE4]  2.03 ± 0.078
16. QTVRLIKDLQRAINKVL [SIR2]  2.13 ± 0.057
17. QVPLQQTQAIAQQQQLS [YGR119C/NUP57]  2.14 ± 0.08
18. QNAKLLANLIRDALRNI [RRP6]  2.17 ± 0.055
19. QVNIRFLLHNSEIIDTN [SRB8]  2.17 ± 0.059
20. QNFENDFSLRYISNLLY [REC8]  2.19 ± 0.074
21. QRQLLVQQQQQQQLRNQ [SNF5]  2.2 ± 0.071
22. QPEVAVKAAINFSNVTD [YIL149C/MLP2]  2.21 ± 0.064
23. QVRKDLGNVIVPNILSL [NUT1]  2.23 ± 0.1
24. RALFRQLKRWYWQFNGV [RMP1]  2.29 ± 0.18
25. QQLVDSEKRLDHFIHLR [SNF12]  2.3 ± 0.12
26. QKTVNLKNIMKVSDPYV [RPN4]  2.32 ± 0.084
27. QRGEDDLTFKLADILKA [RPO21]  2.34 ± 0.082
28. QFSYLSSTLGIDLEDIK [PCI8]  2.36 ± 0.064
29. QPNEISFKYLSNNDEDD [RGR1]  2.37 ± 0.053
30. QSSEDVITIKSRIRVKI [RPB7]  2.4 ± 0.11
31. RAIYSYLSGAIPNQEVL [YDL116W/NUP84]  2.4 ± 0.066
32. QSISGTLELSAQFRVPR [SWP82]  2.46 ± 0.077
33. QQLDSFNQFVDYTLQDI [RPB2]  2.48 ± 0.094
34. QQQLQQNSKEKNGLGLN [MED2]  2.5 ± 0.29
35. QIQQQQQKQQQQQQQHQ [SNF5]  2.53 ± 0.12
36. QIIRLFYSKNRLLITGT [ISW2]  2.55 ± 0.23
37. QQGQNMSEQQWREQLRN [ROX3]  2.55 ± 0.071
38. QLYFQKNGAQDLVLQIL [RRI2]  2.6 ± 0.12
39. QIDHFKSMLSKPETLSI [SWI3]  2.61 ± 0.086
40. QLLEKAPIPIREDIDDP [BRR2]  2.64 ± 0.064
41. QTIPIQIYGFEGLNQRN [YGR119C/NUP57]  2.64 ± 0.27
42. QMAVHIATDGGRICRPL [RET1]  2.66 ± 0.094
43. RADIVRNIILEARFDVL [ISW2]  2.66 ± 0.088
44. QNSKFLKVNVTLDNPLL [YJL039C/NUP192]  2.72 ± 0.088
45. QQLLPAPQLFPYGSFHQ [DSN1]  2.72 ± 0.09
46. QIPQQLYQSLTPQQLQM [SNF5]  2.73 ± 0.041
47. QTFNFDSFENYFNQLKP [RPN12]  2.76 ± 0.047
48. QQQQQQQQQTSPPPQTH [SNF5]  2.765 ± 0.011
49. QRVRNMRELGLIQSTEF [YOR098C/NUP1]  2.78 ± 0.12
50. QLTPQQQQLVNQMKVAP [GAL11]  2.8 ± 0.061
51. QFYVKRWKRFTIGAIFL [CDC53]  2.81 ± 0.076
52. QVPQVRSMSGQPPTNVQ [SNF5]  2.81 ± 0.05
53. QQENSKSGKRKPNIILD [RPC31]  2.83 ± 0.099
54. QSNEDTFLPSYMKFSNK [RRI2]  2.84 ± 0.063
55. QPKLNPMASSSSFGSES [SWI1]  2.85 ± 0.064
56. RAKAEAAEFRYKYGYDM [SCL1]  2.85 ± 0.065
57. QTIEMITQIVEKDFCTS [SRB8]  2.86 ± 0.054
58. QKTRVKLLFDHDELDMN [ESC2]  2.87 ± 0.16
59. QPKRNLSRYVKWPEYVR [RPL8A]  2.87 ± 0.096
60. QLSNGIVVATEHNPSAH [COR1]  2.88 ± 0.075
61. QQEAKYRNNEPAGFTHK [YDL088C/ASM4]  2.88 ± 0.052
62. QLDSKLMVFNDDTKNQD [YGR119C/NUP57]  2.93 ± 0.062
63. QNNLPPNFFLTLISENW [BRR2]  2.94 ± 0.073
64. QQFNLHEILSEPAIEEE [MED1]  2.94 ± 0.15
65. RADVEDESNDIDMIADE [RPC37]  2.95 ± 0.073
66. QESLVKLFTTNELMRWP [RPN5]  2.96 ± 0.21
67. QYESQAPDGSASISLPN [SWP82]  2.97 ± 0.055
68. RALSIFSPDGHIFQVEY [PRE6]  2.97 ± 0.051
69. QGNYPTTSYIKEQENIT [DPB4]  3 ± 0.06
70. QRDRHTLAYDRGHRIRR [PRP8]  3.01 ± 0.1
71. QQQPQPQYNMNMGMNNM [PGD1]  3.02 ± 0.049
72. QRGKMHGLKQLRDSLAD [NUT2]  3.04 ± 0.077
73. QRKTNGASNGDDSNGGN [BRN1]  3.12 ± 0.14
74. QVILPMSPNHGTFGGDG [FAS2]  3.12 ± 0.064
75. RAPKANGALDPKMGVSS [RPO31]  3.12 ± 0.23
76. QQLLKGLSLSFSKKLDL [DSN1]  3.13 ± 0.076
77. QLVPIRLEFDQDRDRFF [SNF5]  3.14 ± 0.13
78. QQAQSFVGKKNTIGSVH [SSN3]  3.14 ± 0.1
79. QYSTRHDAPRGLFPFES [SWI3]  3.14 ± 0.062
80. QTRAKLLDNEIRIFRSE [RPT5]  3.15 ± 0.12
81. QFKSKEVEKAHPIRLYT [PRP8]  3.17 ± 0.085
82. QQPNPLHGLTPTAKDVE [GAL11]  3.17 ± 0.053
83. QLWLNSSGDFDDNNNNN [GRR1]  3.19 ± 0.076
84. QNRSLQEHNIQDSNVMP [SNF2]  3.19 ± 0.057
85. QTDADRVKDPQWLIMLG [RIP1]  3.19 ± 0.16
86. RAGMTHEDEKLIPTIFR [PRP8]  3.19 ± 0.085
87. QGLNILEWLENPSNTPD [FAS1]  3.2 ± 0.12
88. QSTPQPDDMVEINSVGN [ITC1]  3.2 ± 0.11
89. QSRVPTSLTSIKWENAF [PRP8]  3.21 ± 0.077
90. QRESQIGAAELNENARE [SNF12]  3.22 ± 0.075
91. QEPSASQVKDSVTETES [SRP68]  3.27 ± 0.13
92. QLQGPQWMNEMVERWAN [SOH1]  3.28 ± 0.11
93. QIIRRVKEMEPKQSDEY [SIR3]  3.29 ± 0.12
94. QTLGLESFTEELSNELS [MED1]  3.29 ± 0.064
95. QKTQELNAKYQSLGLDD [ISW2]  3.31 ± 0.061
96. QLNGNETFSTSAHQSPI [SNF2]  3.31 ± 0.11
97. QEVTNEAPFLTSGTSSE [GAL11]  3.35 ± 0.079
98. RAKAMKFADGFLIHSGQ [RPS3]  3.4 ± 0.11
99. QGPIVADKNCAKLHRIS [PUP1]  3.41 ± 0.15
100. QLNEERSRYRREIDALK [YIL149C/MLP2]  3.44 ± 0.092
101. QNQGGAQAPFDIDDLAF [ROX3]  3.55 ± 0.13
102. QLGEWAGLGKIDREGNA [RPS12]  3.67 ± 0.28
